Assay results taken from patent publication US20110262929A1 (FORERUNNER PHARMA RESEARCH, published 2011).

T1: GST_HS6ST2_C1 (human, UniProt Q96MM7 454-539)
T1 construct: Expressed in E. coli BL21 (DE3); whole cell lysate blotted after SDS-PAGE; also called GST fusion of amino acids 308-393 of HS6ST2_N-short; not shown: N-terminal glutathione S-transferase (GST) of vector pGEX-6P-1, with the vector's linker
T1 sequence: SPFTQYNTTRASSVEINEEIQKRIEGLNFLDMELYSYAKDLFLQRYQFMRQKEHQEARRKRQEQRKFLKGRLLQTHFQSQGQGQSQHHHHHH

T2: secreted HS6ST2 (sHS6ST2_FLAG) (human, UniProt Q96MM7 170-605)
T2 construct: Purified from CHO supernatant on anti-FLAG gel; also called soluble HS6ST2
T2 sequence: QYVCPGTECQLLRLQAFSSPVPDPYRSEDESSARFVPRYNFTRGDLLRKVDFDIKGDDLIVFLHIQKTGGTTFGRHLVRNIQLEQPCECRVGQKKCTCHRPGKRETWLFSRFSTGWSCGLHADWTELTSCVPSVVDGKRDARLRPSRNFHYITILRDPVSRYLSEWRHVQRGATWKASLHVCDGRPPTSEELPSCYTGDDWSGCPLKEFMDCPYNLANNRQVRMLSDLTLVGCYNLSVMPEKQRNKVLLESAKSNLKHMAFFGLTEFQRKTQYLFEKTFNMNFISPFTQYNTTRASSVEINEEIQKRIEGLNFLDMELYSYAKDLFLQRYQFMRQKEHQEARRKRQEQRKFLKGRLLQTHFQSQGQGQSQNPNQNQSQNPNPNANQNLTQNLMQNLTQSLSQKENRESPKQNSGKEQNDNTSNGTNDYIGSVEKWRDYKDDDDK

T3: GST_HS6ST2_C2 (human, UniProt Q96MM7 525-605)
T3 construct: Expressed in E. coli BL21 (DE3); whole cell lysate blotted after SDS-PAGE; also called GST fusion of amino acids 379-459 of HS6ST2_N-short; not shown: N-terminal glutathione S-transferase (GST) of vector pGEX-6P-1, with the vector's linker
T3 sequence: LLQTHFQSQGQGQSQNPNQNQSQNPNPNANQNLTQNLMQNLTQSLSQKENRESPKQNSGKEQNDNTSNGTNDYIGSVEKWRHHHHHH


How the values were obtained:
GST_HS6ST2_C1 = target: T1, GST_HS6ST2_C1; experiment: Western blot of E. coli whole cell lysate, antibody 10 µg/mL
Description: (§1) GST_HS6ST2_N, GST_HS6ST2_mid, GST_HS6ST2_C, GST_HS6ST2_C1 and GST_HS6ST2_C2 were expressed in BL21 (DE3) Competent Cells (Takara Bio), and the whole cell lysates were resolved by SDS-PAGE electrophoresis and then transferred to PVDF membranes (Immobilon-P, Millipore) and Western blotted with the anti-HS6ST2 antibodies. The anti-HS6ST2 antibodies were used at 10 μg/mL, while the secondary antibody (HRP-anti mIgG, GE Healthcare) was used as a 3000-fold dilution, and blots were detected with ECL Western Blotting Detection Reagents (GE Healthcare). As a result, the anti-HS6ST2 antibodies A1, A10, B5, B6 and C8 bound to GST_HS6ST2_C2, A6 bound to GST_HS6ST2_C1, and C10 bound to GST_HS6ST2_N.

[1] = target: T2, secreted HS6ST2 (sHS6ST2_FLAG); experiment: sandwich ELISA: A6 coated at 5 µg/mL as capture, B5-biotin and C8-biotin (3 µg/mL each, mixed) as detectors
GST_HS6ST2_C2 = target: T3, GST_HS6ST2_C2; experiment: Western blot of E. coli whole cell lysate, antibody 10 µg/mL
Description: as §1

[2] = target: T2, secreted HS6ST2 (sHS6ST2_FLAG); experiment: flow cytometry: sHS6ST2_FLAG (50 µg/mL) held on heparan sulfate of DG44 cells, detected with C8 as primary antibody
Description: Each anti-HS6ST2 antibody or mouse IgG1 (mIgG1, BD Biosciences Pharmingen) as a negative control was added to a final concentration of 2 μg/mL into 96-well U-bottom plates (Becton Dickinson) containing 5×10⁴ cells suspended in PBS (FACS buffer) supplemented with 0.5% bovine serum albumin and 0.1% NaN₃. After reaction on ice for 1 hour, the cells were washed with FACS buffer. Then, an FITC-labeled anti-mouse antibody (Goat F(ab′)₂ Fragment Anti-mouse IgG (H+L)-FITC, Beckman Coulter) was added as a secondary antibody, and the mixture was reacted on ice for 1 hour. The cells were washed with FACS buffer, and then suspended in FACS buffer containing 10 μg/mL propidium iodide (PI) (Sigma) and assayed by a flow cytometer (FACS Calibur, Becton Dickinson). The assay data were analyzed by CELLQuest software (Becton Dickinson), and the geo-mean of FITC fluorescent intensity was calculated for the PI-negative population of viable cells.
Then, binding of soluble HS6ST2 (sHS6ST2_FLAG) to DG44 cells was evaluated. DG44 cells were enzymatically treated, and then reacted with sHS6ST2_FLAG prepared at 50 μg/mL in FACS buffer at 4° C. for 3 hours. After washing, the cells were analyzed by flow cytometry in the same manner as in Example 3. The anti-HS6ST2 antibody C8 was used as a primary antibody and mIgG1 (BD Biosciences Pharmingen) was used as a negative control. […]

| Binder | binding result (GST_HS6ST2_C1) | binding result [1] | binding result (GST_HS6ST2_C2) | binding result [2] |
| --- | --- | --- | --- | --- |
| anti-HS6ST2 antibody A6 (antibody, mouse IgG1, V domains shown, also called clone A6) VH: EVQLQQSGAELVRSGASVKLSCTASGFNIKDYYMHWVKQRPEQGLEWIGWIDPENDDTEYAPKFQGRATMTADTSSNTAYLQLSSLTSEDTAVYYCNAGYYGSGFAYWGQGTLVTVSA VL: DIVMTQSPSSLTVTAGEKVTMRCKSSQSLLNSGNQKNYLTWYQQKPGQPPRLLIYWASIRESGVPDRFTGSGSGTDFTLTISSVQAEDLAVYYCQNDYSYPLTFGTGTKLELK | binds | binds |  |  |
| anti-HS6ST2 antibody C8 (antibody, mouse IgG1, V domains shown, also called clone C8; C8-biotin) VH: EVQLQQSGAELVRSGASVKLSCTASGFNIKDYYMHWVKQRPEQGLEWIGWIDPDNDDTEYAPKFQGKATMTADTSSNTAYLQLSSLTSEDTAVYYCNAGNGNYWFAYWGQGTLVTVSA VL: DVVMTQTPLSLPVSLGDQASISCRSSQSLVHSNGNTYLHWNLQKPGQSPKLLIYKVSNRFSGVPDRFSGSGSGTDFTLKISRVEAEDLGVYFCSQTTLVPYTFGGGTKLEIK |  |  | binds | binds |
